For assay [1], the target named is Sey1p-ΔTM (S. cerevisiae). The experiment in a line: SEC; Superdex 200 (10/300), 20 mM HEPES-NaOH pH 7.4, 150 mM NaCl; Sey1p-ΔTM incubated at 30°C for 1 h with GMP-PNP, without or with the Lnp1p peptide. Background: Size exclusion chromatography separates by hydrodynamic size, large species first.
The target in assay [2] is T1, His6-tagged Sey1p-(1-675), the N-terminal cytoplasmic region of Sey1p (S. cerevisiae, UniProt Q99287 1-675).
T1 construct: in pET28a; source: E. coli Rosetta-2 DE3, purified (Ni-NTA)
T1 sequence (looked up): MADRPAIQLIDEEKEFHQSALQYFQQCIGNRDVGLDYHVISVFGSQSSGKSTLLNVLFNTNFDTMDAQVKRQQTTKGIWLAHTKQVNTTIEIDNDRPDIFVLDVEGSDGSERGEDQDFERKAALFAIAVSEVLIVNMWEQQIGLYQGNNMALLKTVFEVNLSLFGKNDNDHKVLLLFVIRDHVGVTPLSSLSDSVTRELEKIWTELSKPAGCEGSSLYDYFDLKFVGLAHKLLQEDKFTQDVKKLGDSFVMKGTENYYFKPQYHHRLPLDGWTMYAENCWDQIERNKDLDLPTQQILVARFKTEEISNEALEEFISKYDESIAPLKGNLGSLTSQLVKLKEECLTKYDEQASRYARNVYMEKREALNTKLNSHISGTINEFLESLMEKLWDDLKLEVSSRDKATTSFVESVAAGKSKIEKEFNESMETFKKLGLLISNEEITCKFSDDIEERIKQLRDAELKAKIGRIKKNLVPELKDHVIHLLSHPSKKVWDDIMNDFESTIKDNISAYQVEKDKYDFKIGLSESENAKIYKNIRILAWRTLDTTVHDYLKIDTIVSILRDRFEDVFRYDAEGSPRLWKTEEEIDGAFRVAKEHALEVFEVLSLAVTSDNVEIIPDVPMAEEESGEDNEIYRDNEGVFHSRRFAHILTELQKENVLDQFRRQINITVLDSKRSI
The experiment in a line: pull-down; 40 μg his6-tagged protein with 20 μM Lnp1p peptide in RB150 buffer, 0.4% Triton X-100, 20 mM imidazole, 4°C 2 h; Ni-NTA agarose 30 min; SDS-PAGE, Coomassie. Particulars: both partners purified.

The target in assay [3] is T2, His6-tagged Sey1p-(1-283) (S. cerevisiae, UniProt Q99287 1-283).
T2 construct: Sey1p, S. cerevisiae, amino acids 1-283 (GTPase domain); in pET28a; also called GTPase domain of Sey1p; source: E. coli Rosetta-2 DE3, purified (Ni-NTA)
T2 sequence (looked up): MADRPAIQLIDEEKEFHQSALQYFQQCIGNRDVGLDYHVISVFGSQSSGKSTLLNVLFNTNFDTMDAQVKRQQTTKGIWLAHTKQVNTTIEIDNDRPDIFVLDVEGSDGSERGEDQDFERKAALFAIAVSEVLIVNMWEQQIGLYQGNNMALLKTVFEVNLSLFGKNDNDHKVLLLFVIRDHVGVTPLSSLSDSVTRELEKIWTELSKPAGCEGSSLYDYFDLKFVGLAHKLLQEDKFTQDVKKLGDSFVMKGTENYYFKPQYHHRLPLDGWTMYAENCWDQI
Described as above. The note with it: both partners purified.

For orientation: stoichiometry N means a count of units in the complex or per binding partner. As for Sey1p-ΔTM (domain or fragment), in assay [1], the stoichiometry N was found to be 2.

B1: Lnp1p peptide, a synthetic peptide with the N-terminal region (amino acids 1-52) of Lnp1p (peptide, UniProt P38878 1-52, looked up)
peptide: MFSALGKWVRGSRNDKDFVTKYTADLSQITSQIHQLDVALKKSQSILSQWQS
notes: Lnp1p (yeast lunapark), S. cerevisiae, amino acids 1-52; also called LNP1 peptide; source: synthetic peptide (custom, Anygen)
For the molecule B1, the binding result in assay [2] and in assay [3] was “binds” each time.

For the origin of these results see article PMC10679814, “Yeast lunapark regulates the formation of trans-Sey1p complexes for homotypic ER membrane fusion” (iScience, 2023).
